Experimental data published in the supplement of paper PMC10724198.
± gives the standard deviation of the averaged measurements.

What was measured:
[1] = system: Saccharomyces cerevisiae; assay: protein stability index of tFT-peptide fusion (C-terminal peptide) (PSI (0-1 scale)); higher = more stable (slower turnover)
Description: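 MPS profiling in S. cerevisiae of the tFT-X12 degron library: putative degron peptides plus stable controls, 12 aa, fused to the C-terminus of a sfGFP-mCherry timer. Cells are FACS-sorted into 8 mCherry/sfGFP bins and deep-sequenced. PSI runs from 0 (unstable) to 1 (stable). Backgrounds are wild type, das1Δ and doa10Δ at 30 °C, and wild type, das1Δ, cdc34-1 and cdc53-1 at 37 °C; 2-3 technical replicates each.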

[2] = system: Saccharomyces cerevisiae; assay: as above; details: genetic background: wild type; temperature: 30 C
[3] = genetic background: cdc34-1, temperature: 37 C
[4] = genetic background: cdc53-1, temperature: 37 C
[5] = genetic background: das1 deletion, temperature: 30 C
[6] = genetic background: das1 deletion, temperature: 37 C
[7] = genetic background: doa10 deletion, temperature: 30 C
[8] = genetic background: wild type, temperature: 30 C
[9] = genetic background: wild type, temperature: 37 C
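Note: PSI is a weighted mean of sequencing reads over stability bins, variants kept only with over 10 reads, mCherry proximal and sfGFP distal, peptide attached via GGGS linker.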

Sequence	protein stability index [1, 3]	protein stability index [1, 4]	protein stability index [1, 5]	protein stability index [1, 6]	protein stability index [1, 7]	protein stability index [1, 8]	protein stability index [1, 9]	protein stability index [2]
CLCFFLICFILF	0.252 ± 0.0092	0.255 ± 0.011	0.235 ± 0.019	0.391 ± 0.027	0.248 ± 0.0026	0.219 ± 0.032	0.333 ± 0.016	0.3151 ± 0.002
TLCCLVCSQGVV	0.478 ± 0.051	0.598 ± 0.013	0.471 ± 0.027	0.5217 ± 0.0031	0.482 ± 0.031	0.479 ± 0.039	0.526 ± 0.01	0.484 ± 0.016
CFFSLLLLIFSV	0.4101 ± 0.0016	0.412 ± 0.024	0.311 ± 0.041	0.4838 ± 0.0022	0.3486 ± 0.0032	0.31 ± 0.017	0.4476 ± 0.0032	0.377 ± 0.032
CFFMVGFVFYFV	0.286 ± 0.031	0.412 ± 0.027	0.291 ± 0.039	0.505 ± 0.017	0.288 ± 0.014	0.294 ± 0.03	0.438 ± 0.0094	0.296 ± 0.014
SGCWGRRLWFFN	0.668 ± 0.04	0.791 ± 0.018	0.66 ± 0.037	0.7567 ± 0.0052	0.189 ± 0.018	0.235 ± 0.016	0.453 ± 0.011	0.325 ± 0.065
VSVFSLFLFLRV	0.25 ± 0.047	0.194 ± 0.022	0.357 ± 0.03	0.413 ± 0.045	0.531 ± 0.031	0.35 ± 0.03	0.353 ± 0.049	0.421 ± 0.0044
CFFFCSLFLSFL	0.439 ± 0.022	0.452 ± 0.011	0.436 ± 0.022	0.498 ± 0.01	0.4065 ± 0.001	0.35 ± 0.0098	0.431 ± 0.015	0.3662 ± 0.0032
FCVLLFCAVSDL	0.289 ± 0.032	0.383 ± 0.03	0.239 ± 0.036	0.4433 ± 0.0013	0.212 ± 0.0092	0.24 ± 0.036	0.398 ± 0.0074	0.317 ± 0.03
VGTIVLTCIEVN	0.0595 ± 0.022	0.0586 ± 0.013	0.191 ± 0.022	0.22 ± 0.0081	0.1519 ± 0.00081	0.187 ± 0.011	0.205 ± 0.0017	0.279 ± 0.017
GVLFHIVLHFMV	0.24 ± 0.045	0.277 ± 0.01	0.255 ± 0.028	0.391 ± 0.0053	0.199 ± 0.017	0.194 ± 0.023	0.305 ± 0.029	0.27 ± 0.061
SPSFLVIFTMLL	0.528 ± 0.023	0.577 ± 0.01	0.433 ± 0.034	0.6018 ± 0.0041	0.438 ± 0.044	0.444 ± 0.013	0.596 ± 0.017	0.468 ± 0.015
AGTLLLGYGILA	0.454 ± 0.019	0.464 ± 0.038	0.342 ± 0.023	0.5107 ± 0.00054	0.309 ± 0.017	0.349 ± 0.023	0.486 ± 0.0055	0.43845 ± 0.00034
SPVPITVAVGCR	0.473 ± 0.0085	0.491 ± 0.012	0.352 ± 0.034	0.5444 ± 0.0028	0.329 ± 0.008	0.357 ± 0.021	0.499 ± 0.018	0.407 ± 0.029
LCLLFLSFFFVC	0.464 ± 0.0083	0.515 ± 0.014	0.374 ± 0.037	0.555 ± 0.086	0.229 ± 0.015	0.234 ± 0.027	0.361 ± 0.0065	0.307 ± 0.0056
AVRLPFPLLVHL	0.205 ± 0.012	0.195 ± 0.0033	0.283 ± 0.031	0.386 ± 0.0046	0.427 ± 0.016	0.276 ± 0.053	0.337 ± 0.029	0.473 ± 0.028
RSIAFLLGQFLS	0.6679 ± 0.0052	0.745 ± 0.016	0.68 ± 0.027	0.74305 ± 0.00053	0.372 ± 0.019	0.395 ± 0.047	0.637 ± 0.016	0.467 ± 0.013
FCVVFFLSLVFL	0.457 ± 0.01	0.491 ± 0.03	0.391 ± 0.027	0.511 ± 0.013	0.4225 ± 0.0026	0.386 ± 0.0062	0.49 ± 0.0029	0.495 ± 0.046
GVVCVLGFALFV	0.403 ± 0.026	0.507 ± 0.042	0.293 ± 0.046	0.495 ± 0.0051	0.28 ± 0.014	0.3 ± 0.028	0.473 ± 0.0053	0.413 ± 0.08
LCFRLVSYLCIN	0.497 ± 0.054	0.694 ± 0.013	0.591 ± 0.048	0.6781 ± 0.0015	0.223 ± 0.0073	0.221 ± 0.011	0.37 ± 0.013	0.39 ± 0.0077
FCGWLGVYLVKG	0.5909 ± 0.001	0.6581 ± 0.00083	0.484 ± 0.026	0.656 ± 0.0023	0.481 ± 0.035	0.49 ± 0.015	0.668 ± 0.062	0.494 ± 0.076

Sequence	protein stability index [1, 3]	protein stability index [1, 4]	protein stability index [1, 5]	protein stability index [1, 6]	protein stability index [1, 7]	protein stability index [1, 8]	protein stability index [1, 9]	protein stability index [2]
DSTLLYRPPSPA	0.672 ± 0.032	0.713 ± 0.02	0.646 ± 0.019	0.7252 ± 0.0017	0.651 ± 0.021	0.637 ± 0.02	0.683 ± 0.022	0.7089 ± 0.0008
VCGYGFAVPCYT	0.489 ± 0.013	0.549 ± 0.021	0.37 ± 0.026	0.5832 ± 0.0026	0.327 ± 0.012	0.372 ± 0.012	0.535 ± 0.0076	0.437 ± 0.02
CRLCVFGVWFCG	0.532 ± 0.033	0.535 ± 0.012	0.443 ± 0.018	0.5751 ± 0.0034	0.448 ± 0.037	0.412 ± 0.022	0.5405 ± 0.0014	0.499 ± 0.033
RLVGVRWEVCNL	0.91 ± 0.041	0.902 ± 0.024	0.78 ± 0.041	0.86371 ± 0.00039	0.771 ± 0.022	0.772 ± 0.014	0.863 ± 0.019	0.744 ± 0.015
TSFLHLFVAAII	0.588 ± 0.027	0.632 ± 0.045	0.499 ± 0.02	0.5932 ± 0.0013	0.415 ± 0.009	0.434 ± 0.012	0.5505 ± 0.004	0.513 ± 0.024
LRNVPCLVFFWV	0.5656 ± 0.0038	0.61 ± 0.025	0.439 ± 0.024	0.632 ± 0.011	0.334 ± 0.017	0.384 ± 0.03	0.631 ± 0.049	0.462 ± 0.048
IIFACFYGVFLM	0.0485 ± 0.025	0.0619 ± 0.03	0.141 ± 0.019	0.169 ± 0.024	0.282 ± 0.052	0.0949 ± 0.036	0.109 ± 0.0083	0.187 ± 0.0052
PVSEPCAWRIIA	0.374 ± 0.015	0.689 ± 0.026	0.6769 ± 0.0044	0.699 ± 0.018	0.0726 ± 0.0028	0.0645 ± 0.018	0.0736 ± 0.0023	0.1098 ± 0.00053
LLSGHFRLLLAF	0.0523 ± 0.014	0.149 ± 0.007	0.178 ± 0.02	0.23 ± 0.013	0.0793 ± 0.0067	0.0945 ± 0.014	0.108 ± 0.02	0.136 ± 0.029
FGVLLVWWYGLF	0.236 ± 0.016	0.367 ± 0.027	0.253 ± 0.05	0.4335 ± 0.0032	0.1894 ± 0.0014	0.204 ± 0.016	0.314 ± 0.0076	0.289 ± 0.039
HLKKKLKIRLIN	0.488 ± 0.16	0.685 ± 0.02	0.645 ± 0.011	0.698 ± 0.036	0.108 ± 0.01	0.116 ± 0.02	0.171 ± 0.018	0.238 ± 0.031
AVVCSRLVLFCL	0.591 ± 0.042	0.609 ± 0.021	0.53 ± 0.016	0.6322 ± 0.0018	0.433 ± 0.018	0.446 ± 0.025	0.588 ± 0.021	0.512 ± 0.026
VCMHIVLLAASP	0.244 ± 0.02	0.317 ± 0.017	0.187 ± 0.0068	0.284 ± 0.014	0.201 ± 0.028	0.202 ± 0.021	0.263 ± 0.011	0.193 ± 0.002
LLILSVRPFVFV	0.479 ± 0.0094	0.52 ± 0.0072	0.397 ± 0.032	0.544 ± 0.0068	0.3727 ± 0.0033	0.367 ± 0.025	0.515 ± 0.022	0.43 ± 0.0067
VYCCVRSLRVAI	0.553 ± 0.0082	0.677 ± 0.047	0.471 ± 0.035	0.6347 ± 0.0019	0.395 ± 0.022	0.428 ± 0.023	0.5746 ± 0.0014	0.496 ± 0.0097
RSYAYIIVATVA	0.153 ± 0.021	0.197 ± 0.0038	0.182 ± 0.026	0.284 ± 0.014	0.14 ± 0.0081	0.178 ± 0.025	0.214 ± 0.024	0.274 ± 0.023
AFWLFSGIARLA	0.568 ± 0.011	0.66 ± 0.023	0.472 ± 0.014	0.642 ± 0.024	0.221 ± 0.014	0.277 ± 0.011	0.5014 ± 0.0035	0.407 ± 0.041
CVGLYCLFVLLG	0.289 ± 0.0046	0.357 ± 0.0088	0.273 ± 0.034	0.449 ± 0.019	0.172 ± 0.0049	0.161 ± 0.018	0.278 ± 0.0049	0.248 ± 0.004
LNVEEGGGLENV	0.698 ± 0.043	0.727 ± 0.023	0.631 ± 0.026	0.719 ± 0.024	0.661 ± 0.044	0.637 ± 0.044	0.699 ± 0.018	0.536 ± 0.1
